From US20180016327A1 (Chugai, published 2018) come the findings set out here.

The chains are these.
B1: CFP0021 21L 94S (antibody, V domains shown)
VH: QVQLVESGGGLVQPGGSLRLSCAASGFTFSDHYMDWVRQAPGKGLEWVGRTRNKANSYTTEYAASVKGRFTISRDDSKNSLYLQMNSLKTEDTAVYYCARTGMMYWGIFDVWGQGTLVTVSS
VL: DIQMTQSPSSLSASVGDRVTITCRASQSIEDDLAWYQQKPGKAPKLLIYHASTLQSGVPSRFSGSGSGTDFTLTISSLQPEDFATYYCQQHDSSPLTFGQGTKVEIK
B2: CFP0017 17L 93N (antibody, V domains shown)
VH: QVQLVQSGAEVKKPGSSVKVSCKASGGTFSSYAISWVRQAPGQGLEWMGGIIPIFGTANYAQKFQGRVTITADESTSTAYMELSSLRSEDTAVYYCARGGWWGGALDYWGQGTLVTVSS
VL: DIQMTQSPSSLSASVGDRVTITCRASQSIEDDLAWYQQKPGKAPKLLIYHASSLQSGVPSRFSGSGSGTDFTLTISSLQPEDFATYYCQQSDNYPLTFGQGTKVEIK
B3: CFP0017 17L 94S (antibody, V domains shown)
VH: QVQLVQSGAEVKKPGSSVKVSCKASGGTFSSYAISWVRQAPGQGLEWMGGIIPIFGTANYAQKFQGRVTITADESTSTAYMELSSLRSEDTAVYYCARGGWWGGALDYWGQGTLVTVSS
VL: DIQMTQSPSSLSASVGDRVTITCRASQSIEDDLAWYQQKPGKAPKLLIYHASSLQSGVPSRFSGSGSGTDFTLTISSLQPEDFATYYCQQSDSSPLTFGQGTKVEIK
B4: CFP0017 17L 53H (antibody, V domains shown)
VH: QVQLVQSGAEVKKPGSSVKVSCKASGGTFSSYAISWVRQAPGQGLEWMGGIIPIFGTANYAQKFQGRVTITADESTSTAYMELSSLRSEDTAVYYCARGGWWGGALDYWGQGTLVTVSS
VL: DIQMTQSPSSLSASVGDRVTITCRASQSIEDDLAWYQQKPGKAPKLLIYHASHLQSGVPSRFSGSGSGTDFTLTISSLQPEDFATYYCQQSDSYPLTFGQGTKVEIK
B5: CFP0019 (antibody, V domains shown)
VH: QVQLQESGPGLVKPSETLSLTCAVSGYSISSGYYWGWIRQPPGKGLEWIGSIYHSGSTYYNPSLKSRVTISVDTSKNQFSLKLSSVTAADTAVYYCARYYVWLGGPTYMDYWGQGTLVTVSS
VL: DIQMTQSPSSLSASVGDRVTITCRASQSIEDDLAWYQQKPGKAPKLLIYHASTLQSGVPSRFSGSGSGTDFTLTISSLQPEDFATYYCQQSDGYPLTFGQGTKVEIK
notes: IgG format
B6: CFP0017 17L 93D (antibody, V domains shown)
VH: QVQLVQSGAEVKKPGSSVKVSCKASGGTFSSYAISWVRQAPGQGLEWMGGIIPIFGTANYAQKFQGRVTITADESTSTAYMELSSLRSEDTAVYYCARGGWWGGALDYWGQGTLVTVSS
VL: DIQMTQSPSSLSASVGDRVTITCRASQSIEDDLAWYQQKPGKAPKLLIYHASSLQSGVPSRFSGSGSGTDFTLTISSLQPEDFATYYCQQSDDYPLTFGQGTKVEIK
B7: CFP0017 17L 94T (antibody, V domains shown)
VH: QVQLVQSGAEVKKPGSSVKVSCKASGGTFSSYAISWVRQAPGQGLEWMGGIIPIFGTANYAQKFQGRVTITADESTSTAYMELSSLRSEDTAVYYCARGGWWGGALDYWGQGTLVTVSS
VL: DIQMTQSPSSLSASVGDRVTITCRASQSIEDDLAWYQQKPGKAPKLLIYHASSLQSGVPSRFSGSGSGTDFTLTISSLQPEDFATYYCQQSDSTPLTFGQGTKVEIK
B8: CFP0017 17L 53T (antibody, V domains shown)
VH: QVQLVQSGAEVKKPGSSVKVSCKASGGTFSSYAISWVRQAPGQGLEWMGGIIPIFGTANYAQKFQGRVTITADESTSTAYMELSSLRSEDTAVYYCARGGWWGGALDYWGQGTLVTVSS
VL: DIQMTQSPSSLSASVGDRVTITCRASQSIEDDLAWYQQKPGKAPKLLIYHASTLQSGVPSRFSGSGSGTDFTLTISSLQPEDFATYYCQQSDSYPLTFGQGTKVEIK
B9: CFP0017 17L 96Y (antibody, V domains shown)
VH: QVQLVQSGAEVKKPGSSVKVSCKASGGTFSSYAISWVRQAPGQGLEWMGGIIPIFGTANYAQKFQGRVTITADESTSTAYMELSSLRSEDTAVYYCARGGWWGGALDYWGQGTLVTVSS
VL: DIQMTQSPSSLSASVGDRVTITCRASQSIEDDLAWYQQKPGKAPKLLIYHASSLQSGVPSRFSGSGSGTDFTLTISSLQPEDFATYYCQQSDSYPYTFGQGTKVEIK
B10: CFP0017 17L 53N (antibody, V domains shown)
VH: QVQLVQSGAEVKKPGSSVKVSCKASGGTFSSYAISWVRQAPGQGLEWMGGIIPIFGTANYAQKFQGRVTITADESTSTAYMELSSLRSEDTAVYYCARGGWWGGALDYWGQGTLVTVSS
VL: DIQMTQSPSSLSASVGDRVTITCRASQSIEDDLAWYQQKPGKAPKLLIYHASNLQSGVPSRFSGSGSGTDFTLTISSLQPEDFATYYCQQSDSYPLTFGQGTKVEIK
B11: CFP0017 17L 93G (antibody, V domains shown)
VH: QVQLVQSGAEVKKPGSSVKVSCKASGGTFSSYAISWVRQAPGQGLEWMGGIIPIFGTANYAQKFQGRVTITADESTSTAYMELSSLRSEDTAVYYCARGGWWGGALDYWGQGTLVTVSS
VL: DIQMTQSPSSLSASVGDRVTITCRASQSIEDDLAWYQQKPGKAPKLLIYHASSLQSGVPSRFSGSGSGTDFTLTISSLQPEDFATYYCQQSDGYPLTFGQGTKVEIK
B12: CFP0017 17L 93R (antibody, V domains shown)
VH: QVQLVQSGAEVKKPGSSVKVSCKASGGTFSSYAISWVRQAPGQGLEWMGGIIPIFGTANYAQKFQGRVTITADESTSTAYMELSSLRSEDTAVYYCARGGWWGGALDYWGQGTLVTVSS
VL: DIQMTQSPSSLSASVGDRVTITCRASQSIEDDLAWYQQKPGKAPKLLIYHASSLQSGVPSRFSGSGSGTDFTLTISSLQPEDFATYYCQQSDRYPLTFGQGTKVEIK
B13: CFP0017 17L 34N (antibody, V domains shown)
VH: QVQLVQSGAEVKKPGSSVKVSCKASGGTFSSYAISWVRQAPGQGLEWMGGIIPIFGTANYAQKFQGRVTITADESTSTAYMELSSLRSEDTAVYYCARGGWWGGALDYWGQGTLVTVSS
VL: DIQMTQSPSSLSASVGDRVTITCRASQSIEDDLNWYQQKPGKAPKLLIYHASSLQSGVPSRFSGSGSGTDFTLTISSLQPEDFATYYCQQSDSYPLTFGQGTKVEIK
B14: CFP0021 21L 96H (antibody, V domains shown)
VH: QVQLVESGGGLVQPGGSLRLSCAASGFTFSDHYMDWVRQAPGKGLEWVGRTRNKANSYTTEYAASVKGRFTISRDDSKNSLYLQMNSLKTEDTAVYYCARTGMMYWGIFDVWGQGTLVTVSS
VL: DIQMTQSPSSLSASVGDRVTITCRASQSIEDDLAWYQQKPGKAPKLLIYHASTLQSGVPSRFSGSGSGTDFTLTISSLQPEDFATYYCQQHDSYPHTFGQGTKVEIK
B15: CFP0021 21L 94W (antibody, V domains shown)
VH: QVQLVESGGGLVQPGGSLRLSCAASGFTFSDHYMDWVRQAPGKGLEWVGRTRNKANSYTTEYAASVKGRFTISRDDSKNSLYLQMNSLKTEDTAVYYCARTGMMYWGIFDVWGQGTLVTVSS
VL: DIQMTQSPSSLSASVGDRVTITCRASQSIEDDLAWYQQKPGKAPKLLIYHASTLQSGVPSRFSGSGSGTDFTLTISSLQPEDFATYYCQQHDSWPLTFGQGTKVEIK
B16: CFP0021 21L 96Y (antibody, V domains shown)
VH: QVQLVESGGGLVQPGGSLRLSCAASGFTFSDHYMDWVRQAPGKGLEWVGRTRNKANSYTTEYAASVKGRFTISRDDSKNSLYLQMNSLKTEDTAVYYCARTGMMYWGIFDVWGQGTLVTVSS
VL: DIQMTQSPSSLSASVGDRVTITCRASQSIEDDLAWYQQKPGKAPKLLIYHASTLQSGVPSRFSGSGSGTDFTLTISSLQPEDFATYYCQQHDSYPYTFGQGTKVEIK
B17: CFP0021 21L 96F (antibody, V domains shown)
VH: QVQLVESGGGLVQPGGSLRLSCAASGFTFSDHYMDWVRQAPGKGLEWVGRTRNKANSYTTEYAASVKGRFTISRDDSKNSLYLQMNSLKTEDTAVYYCARTGMMYWGIFDVWGQGTLVTVSS
VL: DIQMTQSPSSLSASVGDRVTITCRASQSIEDDLAWYQQKPGKAPKLLIYHASTLQSGVPSRFSGSGSGTDFTLTISSLQPEDFATYYCQQHDSYPFTFGQGTKVEIK
B18: CFP0021 21L 96P (antibody, V domains shown)
VH: QVQLVESGGGLVQPGGSLRLSCAASGFTFSDHYMDWVRQAPGKGLEWVGRTRNKANSYTTEYAASVKGRFTISRDDSKNSLYLQMNSLKTEDTAVYYCARTGMMYWGIFDVWGQGTLVTVSS
VL: DIQMTQSPSSLSASVGDRVTITCRASQSIEDDLAWYQQKPGKAPKLLIYHASTLQSGVPSRFSGSGSGTDFTLTISSLQPEDFATYYCQQHDSYPPTFGQGTKVEIK
B19: CFP0021 21L 96I (antibody, V domains shown)
VH: QVQLVESGGGLVQPGGSLRLSCAASGFTFSDHYMDWVRQAPGKGLEWVGRTRNKANSYTTEYAASVKGRFTISRDDSKNSLYLQMNSLKTEDTAVYYCARTGMMYWGIFDVWGQGTLVTVSS
VL: DIQMTQSPSSLSASVGDRVTITCRASQSIEDDLAWYQQKPGKAPKLLIYHASTLQSGVPSRFSGSGSGTDFTLTISSLQPEDFATYYCQQHDSYPITFGQGTKVEIK
B20: CFP0021 21L 94T (antibody, V domains shown)
VH: QVQLVESGGGLVQPGGSLRLSCAASGFTFSDHYMDWVRQAPGKGLEWVGRTRNKANSYTTEYAASVKGRFTISRDDSKNSLYLQMNSLKTEDTAVYYCARTGMMYWGIFDVWGQGTLVTVSS
VL: DIQMTQSPSSLSASVGDRVTITCRASQSIEDDLAWYQQKPGKAPKLLIYHASTLQSGVPSRFSGSGSGTDFTLTISSLQPEDFATYYCQQHDSTPLTFGQGTKVEIK
B21: CFP0021 21L 96W (antibody, V domains shown)
VH: QVQLVESGGGLVQPGGSLRLSCAASGFTFSDHYMDWVRQAPGKGLEWVGRTRNKANSYTTEYAASVKGRFTISRDDSKNSLYLQMNSLKTEDTAVYYCARTGMMYWGIFDVWGQGTLVTVSS
VL: DIQMTQSPSSLSASVGDRVTITCRASQSIEDDLAWYQQKPGKAPKLLIYHASTLQSGVPSRFSGSGSGTDFTLTISSLQPEDFATYYCQQHDSYPWTFGQGTKVEIK

This assay has as its target T1, human C5 (human, UniProt P01031 19-673; P01031 678-1676, Beta and alpha chains are disulfide-linked and the protein is glycosylated.).
T1 construct: Either in-house recombinant C5 or plasma derived C5 (CALBIOCHEM) was used; also called recombinant human C5; plasma derived human C5
Briefly: Biacore, captured antibody, pH 7.4, 37 C.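 Further: biacore binding response of anti-C5 antibody light chain variants captured on chip with human C5 injected, ACES running buffer containing 1.2 mM CaCl₂, parent light chain antibody set to 100.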 For orientation: In SPR one partner is held on a chip, and binding of the other changes the refractive index at the surface.
For the molecule B1, the “% binding (parent = 100)” value was determined as 0.3%.
For B2 the value was 63%; for B3, -8.4%; for B4, 69.6%.
Then B5, with 100%; and B6, with 22.9%.
With B7, the “% binding (parent = 100)” value turned out to be 4.3%.
Then B8, with 109%; and B9, with -11.1%.
For B10 the value was 52.9%; for B11, 51%.
Then B12, with 84.9%; and B13, with -9.4%; and B14, with -0.7%.
In the case of B15, the “% binding (parent = 100)” value came to 1.3%.
Turning to B16, the “% binding (parent = 100)” value was 1.4%.
For B17 the value was 39.9%; for B18, 4.3%; for B19, 19.7%.
B20: the “% binding (parent = 100)” value was 1.3%.
On to B21, for which the “% binding (parent = 100)” value was determined as 0.8%.
